These results are taken from patent US20200308242A1.

Experiment [1] has as its target T1, IFNα receptor on GloResponse ISRE-luc2P/HEK293 cells (UniProt P17181).
T1 sequence (looked up) 1: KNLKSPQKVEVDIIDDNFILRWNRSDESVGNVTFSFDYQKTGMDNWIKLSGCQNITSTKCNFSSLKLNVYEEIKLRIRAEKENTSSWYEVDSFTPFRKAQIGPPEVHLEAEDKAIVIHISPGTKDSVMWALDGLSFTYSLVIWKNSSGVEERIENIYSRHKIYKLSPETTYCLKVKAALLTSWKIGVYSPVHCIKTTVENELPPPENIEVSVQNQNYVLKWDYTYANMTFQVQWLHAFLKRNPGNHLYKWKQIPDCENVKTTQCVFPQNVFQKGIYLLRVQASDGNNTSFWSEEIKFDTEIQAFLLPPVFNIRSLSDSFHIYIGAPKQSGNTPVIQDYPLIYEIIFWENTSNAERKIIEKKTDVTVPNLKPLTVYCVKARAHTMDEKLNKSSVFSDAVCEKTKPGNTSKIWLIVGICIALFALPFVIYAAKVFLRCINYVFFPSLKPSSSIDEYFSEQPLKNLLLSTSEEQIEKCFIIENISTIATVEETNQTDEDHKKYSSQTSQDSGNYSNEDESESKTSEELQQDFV
T1 sequence (looked up) 2: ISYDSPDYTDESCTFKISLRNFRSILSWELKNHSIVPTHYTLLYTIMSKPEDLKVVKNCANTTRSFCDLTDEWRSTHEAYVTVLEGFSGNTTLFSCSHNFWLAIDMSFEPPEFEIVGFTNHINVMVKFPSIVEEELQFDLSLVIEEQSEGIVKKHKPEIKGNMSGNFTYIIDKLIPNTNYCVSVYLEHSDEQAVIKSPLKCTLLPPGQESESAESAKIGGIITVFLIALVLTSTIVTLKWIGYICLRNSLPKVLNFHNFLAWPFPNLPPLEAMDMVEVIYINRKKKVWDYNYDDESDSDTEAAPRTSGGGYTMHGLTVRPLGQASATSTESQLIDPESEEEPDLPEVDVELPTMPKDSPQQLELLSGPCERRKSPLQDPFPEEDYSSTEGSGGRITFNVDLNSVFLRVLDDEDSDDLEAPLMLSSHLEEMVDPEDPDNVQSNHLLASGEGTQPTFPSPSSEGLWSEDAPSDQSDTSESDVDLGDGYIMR
Put plainly: cell-based or functional assay.

Experiment [2] has as its target IL-2Rβ/IL-2Rγ receptor subunits on PathHunter U2OS IL-2Rβ/IL-2Rγ/(IL-2Rα) cells (UniProt P14784). Nature of the experiment: cell-based or functional assay.

Regarding “Recombinant human IFNα2a (from UniProt P01563 24-188) (ligand)”, in experiment [1], the EC50, ISRE-luc2P/HEK293 luciferase reporter, +MMP9 was 0.05 nM and the EC50, ISRE-luc2P/HEK293 luciferase reporter, -MMP9 was 0.08 nM.
In turn, “NHS76-PVGLIG-hIFNα2a cleaved by MMP-9 (released hIFNα2a) (from UniProt P01563 24-188) (ligand)” registered an EC50, ISRE-luc2P/HEK293 luciferase reporter, +MMP9 in experiment [1] of 0.03 nM.
“NHS76-PVGLIG-hIFNα2a (from UniProt P01563 23-188)” yielded an EC50, ISRE-luc2P/HEK293 luciferase reporter, -MMP9 in experiment [1] of 5.33 nM.
Consider “H16/L16-PVGLIG-hIL-15 cleaved by MMP-9 (released hIL-15) (from UniProt P40933 49-162) (ligand)”, for which, in experiment [2], the EC50 of IL-15-induced IL-2Rβ/IL-2Rγ dimerisation (PathHunter U2OS chemiluminescence), +MMP-9 came out at 2.84 nM.
In experiment [1], “H16/L16-PVGLIG-hIFNα2a cleaved by MMP-9 (released hIFNα2a) (from UniProt P01563 24-188) (ligand)” showed an EC50, ISRE-luc2P/HEK293 luciferase reporter, +MMP9, no pre incubation of the cells with H16/L16 antibody of 0.02 nM and an EC50, ISRE-luc2P/HEK293 luciferase reporter, +MMP9, pre incubation of the cells with H16/L16 antibody (to saturate IGF1-R binding sites) of 0.02 nM.
As to “c9G4-PVGLIG-hIFNα2a cleaved by MMP-9 (released hIFNα2a) (from UniProt P01563 24-188) (ligand)”, the EC50, ISRE-luc2P/HEK293 luciferase reporter, +MMP9 in experiment [1] turned out to be 0.02 nM.
“c9G4-PVGLIG-hIL-15 cleaved by MMP-9 (released hIL-15) (from UniProt P40933 49-162) (ligand)” returned an EC50 of IL-15-induced IL-2Rβ/IL-2Rγ dimerisation (PathHunter U2OS chemiluminescence), +MMP-9 in experiment [2] of 2.07 nM.
In experiment [2], “Recombinant human IL-15 (from UniProt P40933 49-162) (ligand)” had an EC50 of IL-15-induced IL-2Rβ/IL-2Rγ dimerisation (PathHunter U2OS chemiluminescence), +MMP-9 of 0.71 nM and an EC50 of IL-15-induced IL-2Rβ/IL-2Rγ dimerisation (PathHunter U2OS chemiluminescence), -MMP-9 of 0.72 nM.
With “NHS76-PVGLIG-hIL-15 cleaved by MMP-9 (released hIL-15) (from UniProt P40933 49-162) (ligand)”, the EC50 of IL-15-induced IL-2Rβ/IL-2Rγ dimerisation (PathHunter U2OS chemiluminescence), +MMP-9 in experiment [2] amounted to 8.84 nM.
